From patent US5232912

The substances below were run against bovine thrombin (bovine) (UniProt P00735).

Row | Substance | Fibrin Clot Inhibition
1 | Suc-Tyr-Glu-Azd-Ile-Pro-Glu-Glu-Ala-Cha-D-Glu-OH (peptide) | 0.51
2 | Suc-Tyr-Glu-Pip-Ile-Pro-Glu-Glu-Ala-Cha-D-Glu-OH (peptide) | 1.9
3 | Suc-Tyr-Glu-Pro-Ile-Azd-Glu-Glu-Ala-Cha-D-Glu-OH (peptide) | 0.38
4 | Suc-Tyr-Glu-Pro-Ile-Pip-Glu-Glu-Ala-Cha-D-Glu-OH (peptide) | 0.88
5 | Suc-Tyr-Glu-Pro-Ile-Tiq-Glu-Glu-Ala-Cha-D-Glu-OH (peptide) | 0.63
6 | Suc-Tyr-Glu-Tiq-Ile-Pro-Glu-Glu-Ala-Cha-D-Glu-OH (peptide) | 0.82
